Literature values in patent publication US20050107320A1, “Methods and compositions for use in interventional pharmacogenomics” (priority 2003, published 2005).

Columns and labels:
[1] = administered systemically

For “EPO: glycoprotein hormone involved in the growth and maturation of erythroid progenitor cells into erythrocytes”, the “crossing of the blood-brain barrier” value [1] is listed as “can cross the blood-brain barrier” and the clinical tolerability is listed as “well tolerated clinically”.
